± gives the uncertainty stated by the source.

One data set can be described thus: amyloid nucleation score (Sup35N fusion, yeast selection) (log enrichment); library NNK1; higher = more nucleation; inactive = no reads after selection. The method, boiled down: (§1)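 Peptides of 20 random codons, each fused to Sup35N, were expressed in psi-negative yeast. Cells were induced with 100 μM copper sulfate for 24 hours and grown 7 days at 30°C on medium lacking adenine and uracil, and plasmid inserts before and after selection were Illumina-sequenced. Nucleation scores are DiMSum log enrichments of output over input reads, centred on the mode score of non-aggregating sequences, and sequences under 100 input reads were excluded.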
DVGSNKGAIIGLMVGGVVIA gave an amyloid nucleation score of 3.61 ± 0.19.
On the same count and under the same terms, the result for GVLLV reads 0.129 ± 0.93.
Still for that read-out and setting: in the case of YLFSIVFCNV it was 2.67 ± 0.29; in that of YLIKCTTIAGRTGYSVTMRD, -0.341 ± 1; in that of YLLLGYSHYQMNVLFNTRQS, “inactive”.
For the substance YLLYDQQVSLRFVWITLSVW, the amyloid nucleation score worked out at 0.683 ± 0.41.
On the same count and under the same terms, the result for YLLYEVSVLNYRPL reads -0.285 ± 0.32; that for YLNILMSWI, -0.921 ± 0.66.
Still for that read-out and setting: the result for YLQLSRAVQRVLTRRWSSI reads 0.31 ± 0.52; that for YLRLFFVRCGHPDSETSYRS, 0.418 ± 0.33; that for YLTSANTSFTFESWWCL, 2.93 ± 0.22.
Same read-out and setting: in the case of YLVITLFPEIIIDYLSYLCP it was 4.52 ± 0.079; in that of YLVTYVLSIRNCGIYIWIRR, 0.413 ± 0.49.
Regarding YMGELFTE, the amyloid nucleation score stood at 2.45 ± 0.15.
For YMLLTLGLTTLVCNSHRLVL, the amyloid nucleation score worked out at 0.026 ± 0.55.
The same measure, in the same setting: in the case of YMQGAFFQQTPSNLWQEGHY it was -0.74 ± 0.84; in that of YMVLS, 0.9 ± 0.85.
As to YNAASKGEINPNAGNVILFV, the amyloid nucleation score is 3.13 ± 0.1.
Turning to YNCMEYSDARHKSSTVRLHY, the amyloid nucleation score is -0.253 ± 0.62.
Regarding YNCWSSLNFYNPIFLRTLLG, the amyloid nucleation score came to 3.46 ± 0.21.
On the same count and under the same terms, the result for YNFCILCSSPIIVFAAPVQR reads 8.034 ± 0.051.
Still for that read-out and setting: in the case of YNFERDYLSVYHFAWLIP it was 0.372 ± 0.54; in that of YNFRTVNFHIGTPSICFGHD, “inactive”.
Same read-out and setting: in the case of YNGGGSYNWVWMGNSPVKTR it was 0.969 ± 0.61.
Substance YNLSGFDNGFSISLSCSDVA yielded an amyloid nucleation score of 0.886 ± 0.74.
In turn, YNSRGDCRTLVKRGMGNFCA showed an amyloid nucleation score of 0.191 ± 0.32.
On the same count and under the same terms, in the case of YNSTAIHNYENRRDLHQLYL it was 0.139 ± 0.33; in that of YNVCGELQDNIRCYISLTVL, “inactive”; in that of YPQMLVSVLRFMYY, 0.009 ± 0.26.
For the substance YPSCAGVWFKHNRLFFV, the amyloid nucleation score was 0.096 ± 0.79.
Still for that read-out and setting: the result for YQSLVMFMEPDSRVLRVCRA reads 0.104 ± 0.69; that for YQWFMYVF, 4.61 ± 0.11.
In the case of YRALLYFNGIMW, the amyloid nucleation score entry was “inactive”.
Same read-out and setting: in the case of YRCTLASNRLRFLWITSNVR it was -0.085 ± 0.58; in that of YREGHHPGWTMVKMMRTQVP, 0.26 ± 0.6.
The same measure, in the same setting: in the case of YRGKRDKVVGSMMCMWRT it was 0.518 ± 0.52; in that of YRGLGFVERESRDRG, -0.418 ± 0.8; in that of YRHTVIVY, 1.13 ± 0.21.
Regarding YRITERIFFDQKASHVWLIT, the amyloid nucleation score is -0.165 ± 0.41.
Still for that read-out and setting: the result for YRKFHPGKRL reads 0.193 ± 0.58.
For YRLGSKISNSVKPRFDRLVE, the amyloid nucleation score entry is “inactive”.
In turn, YRNGCTFGWWRWRR showed an amyloid nucleation score of 1.08 ± 0.28.
Same read-out and setting: the result for YRNLGGLLGIELINIMLLLW reads -0.429 ± 0.93; that for YRRVKM, -0.089 ± 0.53.
Same read-out and setting: the result for YRSYTRNWTLTIPGCTLRSL reads -1.93 ± 2.7.
On the same count and under the same terms, the result for YRWLLNRKTSSMSVFCNSLF reads “inactive”.
Turning to YRYHVSCTYAVSLGAAKSNA, the amyloid nucleation score was -0.078 ± 0.72.
Same read-out and setting: the result for YSCFSECYTKMSHTLSKNNL reads 2.11 ± 0.32; that for YSDSMTIKRDSLWVIGTLEL, 1.94 ± 0.21; that for YSEFRDSLRSGIPLVPFVIQ, 0.066 ± 0.88.
Still for that read-out and setting: in the case of YSFSRQVSMPSSYSFALF it was -0.742 ± 0.65; in that of YSGPGAGFGGLLCIGNAQNL, -0.108 ± 0.62.
Substance YSGVPLARQCGADGLKGTGE yielded an amyloid nucleation score of 0.724 ± 1.2.
On the same count and under the same terms, the result for YSHDSSSTIFRNETPLSTPM reads “inactive”; that for YSIDTGS, “inactive”.
YSIPNDLNPSCKSHLMPRGH registered an amyloid nucleation score of 1.23 ± 0.41.
Turning to YSMVI, the amyloid nucleation score result was “inactive”.
With YSNIRFSMNIYRTLRDRLGA, the amyloid nucleation score came out at 5.12 ± 0.095.
Still for that read-out and setting: in the case of YSQCSRVNFWISAYCVNYIN it was 7.03 ± 0.071; in that of YSRTNMFQ, -0.649 ± 0.5.
In turn, YSSCFRSGIF had an amyloid nucleation score of -0.68 ± 0.6.
On the same count and under the same terms, the result for YSSWVKLASLVDRDVPQYDW reads “inactive”.
On the same count and under the same terms, in the case of YSVFALRINLFAYTIPNSVL it was -0.34 ± 0.24; in that of YSWLVWGTSPV, 0.445 ± 0.38.
Substance YSYNYGWTVAEELYNRCIGA had an amyloid nucleation score of 0.266 ± 0.36.
Still for that read-out and setting: in the case of YSYSEGSLYQCSVSVV it was 0.601 ± 0.7; in that of YTPMTTSWLLPSLEINI, -0.069 ± 0.71.
Same read-out and setting: the result for YTTASDNHVWSWLEYWVRVI reads 0.368 ± 0.56; that for YTVPQSLSLLCSAYLILLDA, 0.561 ± 0.43.
Same read-out and setting: in the case of YVIFCTPSFFIL it was 5.52 ± 0.068; in that of YVLLGFNYKTFYMSVGLDRE, -0.005 ± 0.52; in that of YVNRVPLLEVLCP, -0.118 ± 1.
Turning to YVTFGWIYTSLVPYRLEVIL, the amyloid nucleation score is 0.243 ± 0.42.
Same read-out and setting: in the case of YVTIIDKIYIWLDVVNRDLP it was 2.55 ± 0.29; in that of YVWDAHIINVYLS, 6.51 ± 0.081; in that of YVWLMH, 3.7 ± 0.11.
With YVYGYLNHRTSSGRMFFLFY, the amyloid nucleation score was determined as 0.077 ± 0.38.
Same read-out and setting: the result for YWAKCGWQAGKRYEV reads 0.803 ± 0.77.
Regarding YWARRYLWAGFFI, the amyloid nucleation score was -0.322 ± 1.1.
The same measure, in the same setting: in the case of YWCLRSLMV it was “inactive”.
Same read-out and setting: in the case of YWHDVI it was 0.104 ± 1.
YWILQV gave an amyloid nucleation score of 0.299 ± 0.73.
On the same count and under the same terms, in the case of YYCLKPRGQSIGYGGNCLKA it was 0.134 ± 0.83.
Substance YYCYLLTNHPNTNGSVAFRL came in with an amyloid nucleation score of 0.934 ± 0.44.
The same measure, in the same setting: in the case of YYDYGEYIIKGVLPWIRGFY it was 0.513 ± 0.31.
Same read-out and setting: the result for YYGQII reads 1.54 ± 0.38; that for YYISRVVVDGIRKYWGYLES, -0.866 ± 1.9; that for YYRGCHLYSHHPLRGLLGGV, “inactive”.
Same read-out and setting: the result for YYSSHYVDIAHSKE reads 0.334 ± 0.32; that for YYSWQEDGFPFTNVSMFWS, -0.076 ± 0.37.
In turn, YYWSYLALYSG gave an amyloid nucleation score of -0.57 ± 1.2.

The nature of the next data set: amyloid nucleation score (Sup35N fusion, yeast selection) (log enrichment); library NNK2; higher = more nucleation; inactive = no reads after selection. The procedure, abridged:
as §1
For DVGSNKGAIIGLMVGGVVIA, the amyloid nucleation score came to 2.4 ± 0.19.

A short description of another data set: amyloid nucleation score (Sup35N fusion, yeast selection) (log enrichment); library NNK3; higher = more nucleation; inactive = no reads after selection. The method, boiled down: as §1
GVLLV: the amyloid nucleation score entry is “inactive”.

(Values after the supplement of paper PMC12042874.)
